Test results taken from PMC3390916 (Chembiochem, 2011).

Target: growth factor receptor-bound protein 2 (Grb2), recombinant (human, UniProt P62993 1-217)
Test: SPR

growth factor receptor-bound protein 2 (Grb2), recombinant, sequence (P62993 whole entry): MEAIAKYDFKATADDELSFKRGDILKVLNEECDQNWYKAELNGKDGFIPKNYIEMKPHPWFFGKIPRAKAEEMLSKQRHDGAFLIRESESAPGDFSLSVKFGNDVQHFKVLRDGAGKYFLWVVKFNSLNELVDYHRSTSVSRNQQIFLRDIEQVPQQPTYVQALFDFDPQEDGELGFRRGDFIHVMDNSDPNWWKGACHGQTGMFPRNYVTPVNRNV

Question: How did the Kd turn out when YEVPPPVPPRRRGSC [SH3-binding peptide (YEVPPPVPPRRR)] was run?
Answer: Its Kd is 7.5 ± 5.7 mM.
